The supplement of paper PMC10126150
± gives the standard deviation of the averaged measurements.

Tested on: ATP
Assay: switch fluorescence ratio, 500 uM ATP over buffer (Cy3 cluster intensity, sum of 5 cycles each) (fold (ratio)); higher = stronger signal-on switching upon ATP binding; sequences stand for … in TCGTCGGCAGCGTCAGATGTGTATAAGAGACAGTTTTTTTTTTTTTTTTTTTTTTTTT…TC
Settings: aptamer strand: ATP DNA aptamer (quencher-CACCTGGGGGAGTATTGCGGAGGAAGG + anchor), 100 nM annealed; ATP concentration: 500 uM
Procedure, shortened: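 For every switch-domain sequence, the fluorescence ratio is the mean of per-cluster values, each being summed target-cycle Cy3 intensity over summed buffer-cycle Cy3 intensity. Clusters outside 100-1000 RFU were excluded. On a modified Illumina MiSeq flow-cell, the Cy3-labelled switching-strand clusters were annealed to 100 nM quencher-labelled ATP aptamer, imaged in selection buffer and then after 15 min with 500 uM ATP at 22 °C. Five such cycles were run, with NaOH stripping and re-annealing between them.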
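Further: ATP exposure 15 min at 22 °C before imaging.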

| Sequence | switch fluorescence ratio |
| --- | --- |
| AAACTGGAG | 1.04 ± 0.053 |
| ACTATCGGCA | 1.02 ± 0.029 |
| AATATCGGGT | 0.97 ± 0.019 |
| GGGTTTGGGA | 0.9899 ± 0.0088 |
| GTTGGGTGGA | 1.0356 ± 0.00032 |
| GTTTTGGGTT | 0.977 ± 0.017 |
| GCGTATGAGA | 1.02 ± 0.013 |
| AGGGGGGGT | 1.05 ± 0.077 |
| TGGGGTCGGG | 1 ± 0.022 |
| TTTCCTTTTG | 1.01 ± 0.054 |
| ATTATTATTG | 0.981 ± 0.041 |
| TTCGGAAATG | 1.03 ± 0.025 |
| CATGGTTGCG | 0.987 ± 0.022 |
| TAACTGGCTT | 1.01 ± 0.036 |
| ATTATTCTTT | 1.01 ± 0.061 |
| GCGTCAAGAG | 1.24 ± 0.046 |
| TACTCGGATT | 0.996 ± 0.015 |
| GTATTCAGGT | 0.9921 ± 0.0035 |
| TATTTATTAG | 0.991 ± 0.029 |
| CAGGCATGAG | 1.01 ± 0.011 |
| AAGATGAGGT | 1.01 ± 0.021 |
| CGTTTGATGG | 0.9807 ± 0.0047 |
| CGGATGGCCT | 1.03 ± 0.019 |

| Sequence | switch fluorescence ratio |
| --- | --- |
| TAATTTCCGG | 0.994 ± 0.029 |
| GGGGATTGGG | 0.987 ± 0.028 |
| TGTGAGGG | 1.03 ± 0.036 |
| GAGATAGCTT | 0.955 ± 0.043 |
| TATAATGTGC | 1.04 ± 0.012 |
| TATGACGGGG | 0.962 ± 0.014 |
| GGATGATGGT | 0.985 ± 0.037 |
| GGGTATTTGG | 0.987 ± 0.042 |
| GTAGCAGACG | 1.16 ± 0.013 |
| GGGAACGTTT | 0.993 ± 0.011 |
| CGGCGATGTT | 0.9867 ± 0.0076 |
| TTAAGGGGTA | 1 ± 0.019 |
| GGGTTTATAA | 0.987 ± 0.023 |
| AATTGGGGTA | 0.989 ± 0.026 |
| TTAGTTGTAA | 1.012 ± 0.0049 |
| AAACGGAGTG | 1 ± 0.023 |
| ATATTGCGTT | 1.01 ± 0.02 |
| TTTTTCAGTA | 0.981 ± 0.016 |
| AAATTTATGT | 0.972 ± 0.027 |
| CTTATCATGT | 0.981 ± 0.034 |
| GAGTTTTTGT | 1.01 ± 0.017 |
| AGTAGGGGGC | 1 ± 0.035 |
| TTTTCTGTAT | 1.03 ± 0.052 |

| Sequence | switch fluorescence ratio |
| --- | --- |
| CGGGGCTTTG | 0.982 ± 0.025 |
| TCCGTGAGTG | 1.07 ± 0.031 |
| CATGTGTTTG | 0.993 ± 0.014 |
| ATTTTATTAC | 1.04 ± 0.028 |
| TCGAAGGGTT | 0.993 ± 0.028 |
| GTTTAAGGCT | 1.02 ± 0.088 |
| CAAGGATTTT | 0.9929 ± 0.0012 |
| TGTTAATTGG | 1.02 ± 0.043 |
| TAATGAAGCG | 0.993 ± 0.018 |
| TCTGGACTCG | 1 ± 0.025 |
| GGTATGACCC | 1.0394 ± 0.00014 |
| TATGATTTGG | 0.976 ± 0.031 |
| ATTTACTAGA | 1.004 ± 0.0042 |
| TGATGGTTCA | 0.941 ± 0.077 |
| GCCTGGTCAG | 0.979 ± 0.013 |
| AGGAGCCTTT | 0.9927 ± 0.0011 |
| TTGGCTTACT | 1.11 ± 0.11 |
| AGGTAGGTAA | 1.03 ± 0.054 |
| CGGTTTGGTA | 0.976 ± 0.014 |
| GCTCGACCCT | 1.07 ± 0.039 |
| AAAGTTCGGG | 0.982 ± 0.033 |
| GATATTAGTG | 0.9827 ± 0.0044 |
| ACTATAAGAA | 1.03 ± 0.014 |

| Sequence | switch fluorescence ratio |
| --- | --- |
| TAGTTTTACC | 1 ± 0.013 |
| AATAGTGGTA | 1 ± 0.029 |
| GAGGCCGGGG | 0.9956 ± 0.0026 |
| AAATGGTGAT | 1.035 ± 0.0041 |
| GAACGCTTGG | 1.05 ± 0.023 |
| GACTACTGCA | 1.13 ± 0.046 |
| TGTCAGAGGG | 1.01 ± 0.016 |
| GCTGAGGCTT | 0.9593 ± 0.0019 |
| CATGGGGCGG | 1 ± 0.052 |
| CCTGCAGTTT | 1.04 ± 0.019 |
| TTTGGCACAC | 1.046 ± 0.0048 |
| TGGGTGTTTG | 1.03 ± 0.038 |
| GGTAGTACGG | 0.983 ± 0.014 |
| GTGTGGGCTG | 1.0001 ± 0.0002 |
| TTGTTTTGAT | 0.984 ± 0.035 |
| TTTGATCGCA | 0.999 ± 0.025 |
| TATACGTCTA | 1.07 ± 0.043 |
| ACCGGTTATT | 1 ± 0.013 |
| CAATGTGTCG | 1.07 ± 0.055 |
| AGTAATGTGC | 0.996 ± 0.022 |
| GGTTCGTATA | 1.01 ± 0.017 |
| TGTGGATAGG | 1.03 ± 0.012 |
| GCCTCGTTGG | 0.98 ± 0.012 |

| Sequence | switch fluorescence ratio |
| --- | --- |
| TTTTAACCTA | 1.01 ± 0.019 |
| GCATGGGCTG | 1.04 ± 0.019 |
| CTTTTTGTGT | 0.987 ± 0.019 |
| CTCTAACGG | 0.982 ± 0.089 |
| ACGCTCCTAC | 2.64 ± 0.028 |
| ATCATGCGCT | 0.9964 ± 0.0092 |
| ATTTTAATAT | 0.987 ± 0.03 |
| TTCCGTTATG | 1.04 ± 0.037 |
| ATGTTTGGAC | 1.01 ± 0.02 |
| AGGTTGGCAA | 1.07 ± 0.14 |
| GGTGGTCCCT | 0.99 ± 0.04 |
| TCTGCCTTGG | 0.984 ± 0.011 |
| ATATCAATGT | 1 ± 0.028 |
| GAGCTGCAGT | 0.947 ± 0.047 |
| AACCTTTCTG | 1.5 ± 0.021 |
| TTTTACCTAT | 1.04 ± 0.021 |
| TTTTGAACGA | 1.01 ± 0.035 |
| CCGGTGTGCC | 1.01 ± 0.052 |
| AGAGATGAGA | 1.02 ± 0.031 |
| TAATTTGAAA | 1.03 ± 0.07 |
| TATGGTGTTT | 1.02 ± 0.036 |
| GGTTGACGGG | 0.985 ± 0.055 |
| TGGCATTTTT | 0.991 ± 0.025 |

| Sequence | switch fluorescence ratio |
| --- | --- |
| CCCGAGGGTT | 1.01 ± 0.017 |
| GGGGTAAGTG | 0.987 ± 0.04 |
| TTAATATTAT | 0.978 ± 0.013 |
| TACGAGCTGG | 0.995 ± 0.01 |
| ATGATTGGTT | 1 ± 0.022 |
| TTGACCGGAA | 1.14 ± 0.038 |
| TGTTTTATG | 1.007 ± 0.0086 |
| GAGCACGGGT | 1.04 ± 0.053 |
| AAGGTATTTT | 1.01 ± 0.037 |
| AAAACCAGGG | 1.08 ± 0.033 |
| TGAGGATGGG | 0.975 ± 0.026 |
| TTTTTCATGT | 0.997 ± 0.044 |
| TGGAAGCCGG | 0.957 ± 0.037 |
| GATGAGGTGT | 1.01 ± 0.036 |
| ACGAAGGGCG | 1.019 ± 0.01 |
| GACTATTGTT | 1 ± 0.015 |
| AAGATGTATT | 0.9561 ± 0.0015 |
| TATTAATTAT | 1.01 ± 0.022 |
| GGGGATGAAT | 1 ± 0.024 |
| CGTATTGGGC | 0.9577 ± 0.0065 |
| TGGGAGGGAG | 0.987 ± 0.028 |
| GATTCTCAAG | 0.9746 ± 0.0056 |
| ATAATTGGCC | 0.97422 ± 0.00035 |

| Sequence | switch fluorescence ratio |
| --- | --- |
| ATAAGTGATG | 0.995 ± 0.025 |
| TCGGATGTCA | 0.965 ± 0.049 |
| ATATTTTGAC | 1.05 ± 0.061 |
| GGCATCCAGG | 1.38 ± 0.064 |
| ACCGGTGTAC | 1.77 ± 0.12 |
| TTCGTATGGG | 1.09 ± 0.12 |
| GCGATGCTGC | 1.24 ± 0.08 |
| GGGAAAGGCA | 1.015 ± 0.0076 |
| CGCGGGCACT | 1.04 ± 0.04 |
| TTTAAGGTGA | 1.04 ± 0.053 |
| CGTTATTTTT | 1.016 ± 0.0089 |
| TGCGGGGAAT | 0.9707 ± 0.0068 |
| TTTTTATGAA | 1.011 ± 0.0019 |
| TATATGTAAT | 1.01 ± 0.038 |
| TTTTTTCGAA | 0.998 ± 0.032 |
| TTTGGTTCCT | 1.014 ± 0.0091 |
| TATTAATGTT | 0.997 ± 0.019 |
| AATAGTGTCC | 1.01 ± 0.032 |
| ATTTAGAGGT | 0.965 ± 0.043 |
